From patent CN113563464A (NAT CENTER FOR AIDS/STD CONTROL AND PREVENTION CHINA CDC, dated 2021) come the findings set out here.

The labels stand for the following.
B1: WJQ-G10 (antibody, V domains shown)
VH: EVQLVESGGGLVQPGESLRLSCAASGLTVSSNYMSWVRQAPGKGLEWVSVIYAGGSTFYADSVKGRFTISRDNSKNTLYLQMNSLRAEDMAIYYCARDLSYYGMDVWGQGTTVTVSS
VL: DIQLTQFPFSLSASVGDRVTITCRASQGISTYLAWYQQKPGRAPKLLIYAASTLQSGVPSRFSGSGSGTEFTLTISSLQPEDFATYYCQLLNSYPVHFGQGTKLEIKR
B2: WJQ-C11 (antibody, V domains shown)
VH: EVQLVESGGGLVQPGGSLRLSCAASGFAFSTYEMNWVRQAPGKGLEWVSYIHNSGNPVYYADSVKGRFTISRDNAENSLYLQMNSLRAEDTAIYYCARALRYSTSWYDYWGQGTLVTVSS
VL: EIVLTQSPVSLSLSPGERATLSCRASQSVSSYLAWYQQKPGQAPRLFIYDASKRATGIPARFSGSGSGTDFTLTISSLEPEDFAVYYCQQRSNWPRTFGQGTKVEIKR
B3: SW-C11 (antibody, V domains shown)
VH: EVQLVESGGGLIQPGGSLRLSCAASEFIVSRNYMSWVRQAPGTGLEWVSVIYPGGSTFYADSVKGRFTISRDNSKNTLYLQMDSLRVEDTAVYYCARDYGDFYFDYWGQGTLVTVSS
VL: EIVMTQSPVSLSVSPGERATLSCRASQGVASNLAWYQQKAGQAPRLLIYGASTRATGIPARFSGSGSGTEFTLTISTLQSEDSAVYYCQQYNDRPRTFGQGTKLEIKR

The assay has as its target SARS-Cov-2的生物素化RBD (RBD蛋白, NC_045512, 6×His-Avi标签) (SARS-CoV-2, UniProt P0DTC2 319-541).
Turning to B1, the Kd (usually the equilibrium constant for the complex coming apart) came out at 1.37 nM.

B2 displayed a Kd of 5.29 nM. Compared with the last molecule, the Kd is about 3.9-fold higher.

Turning to B3, the Kd was less than 0.001 nM.
